Consider eight substances from article PMC2928781.

Assay in all cases: two-hybrid; L40 strain co-transformed with pGAD424 (prey) and pBTM116 (target) constructs; LACZ reporter read by ONPG assay (Miller units); each mutant against the wild-type MSH4 or MSH5 partner; three independent co-transformants
The target of assay [1] is Msh5 D250A (S. cerevisiae) (UniProt Q12175).
The target in assay [2] is Msh5 Y661A (S. cerevisiae) (UniProt Q12175).
The target of assay [3] is Msh5 D532A (S. cerevisiae) (UniProt Q12175).
Assay [4] addresses Msh5 N182A (S. cerevisiae) (UniProt Q12175).
Assay [5] addresses Msh5 G648A (S. cerevisiae) (UniProt Q12175).
The target of assay [6] is Msh5 D527A (S. cerevisiae) (UniProt Q12175).
In assay [7] the target is Msh5 R436A (S. cerevisiae) (UniProt Q12175).
Assay [8] addresses Msh5 D539A (S. cerevisiae) (UniProt Q12175).
Assay [9] deals with Msh5 W298A (S. cerevisiae) (UniProt Q12175).
The target in assay [10] is Msh5 D680A (S. cerevisiae) (UniProt Q12175).
In assay [11] the target is Msh5 R685W (S. cerevisiae) (UniProt Q12175).
Assay [12] concerns the target Msh5 D433A (S. cerevisiae) (UniProt Q12175).
The target of assay [13] is Msh5 (S. cerevisiae) (UniProt Q12175).
Assay [14] concerns the target Msh5 V488A (S. cerevisiae) (UniProt Q12175).
The target of assay [15] is Msh5 S416A (S. cerevisiae) (UniProt Q12175).
Assay [16] addresses Msh5 E45A (S. cerevisiae) (UniProt Q12175).
Assay [17] concerns the target Msh5 D76A (S. cerevisiae) (UniProt Q12175).
For assay [18], the target named is Msh5 Y480A (S. cerevisiae) (UniProt Q12175).

Msh4, sequence (P40965 whole entry): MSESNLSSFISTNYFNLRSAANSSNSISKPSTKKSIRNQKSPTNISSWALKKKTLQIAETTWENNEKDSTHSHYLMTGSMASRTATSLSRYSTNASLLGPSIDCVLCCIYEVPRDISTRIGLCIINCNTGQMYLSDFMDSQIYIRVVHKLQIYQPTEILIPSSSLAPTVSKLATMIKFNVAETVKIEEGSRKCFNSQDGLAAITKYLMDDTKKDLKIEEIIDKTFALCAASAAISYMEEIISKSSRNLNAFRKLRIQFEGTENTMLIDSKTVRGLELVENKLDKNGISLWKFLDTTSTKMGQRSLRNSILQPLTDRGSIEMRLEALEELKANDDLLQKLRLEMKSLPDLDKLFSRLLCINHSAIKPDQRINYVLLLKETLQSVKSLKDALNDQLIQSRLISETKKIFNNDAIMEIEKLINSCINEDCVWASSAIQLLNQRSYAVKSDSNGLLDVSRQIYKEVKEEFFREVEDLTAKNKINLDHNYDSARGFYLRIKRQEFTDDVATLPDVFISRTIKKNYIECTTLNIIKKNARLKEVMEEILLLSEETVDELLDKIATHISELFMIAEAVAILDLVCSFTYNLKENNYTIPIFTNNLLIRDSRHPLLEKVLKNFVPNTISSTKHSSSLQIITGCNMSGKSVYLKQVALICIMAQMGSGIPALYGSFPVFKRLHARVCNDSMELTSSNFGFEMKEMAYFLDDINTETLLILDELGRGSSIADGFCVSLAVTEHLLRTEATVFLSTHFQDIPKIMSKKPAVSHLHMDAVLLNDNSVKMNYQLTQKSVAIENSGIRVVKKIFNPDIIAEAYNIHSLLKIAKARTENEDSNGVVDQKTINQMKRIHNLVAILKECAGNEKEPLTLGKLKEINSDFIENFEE

Regarding “Msh4 (from UniProt P40965 1-878) (natural protein)”, the β-galactosidase activity (two-hybrid) in [1] was 6.2 Miller units; in assay [2], 1.2 Miller units; in [3], 3.7 Miller units; in assay [4], 63 Miller units; in assay [5], 45 Miller units; in [6] it was 1.9 Miller units. In addition, the β-galactosidase activity (two-hybrid) in [7] was 1.3 Miller units; in assay [8] it was 89 Miller units; in [9], 1.4 Miller units; in assay [10], 1.4 Miller units; in [11], 46 Miller units; in assay [12], 1.4 Miller units. Besides, the β-galactosidase activity (two-hybrid) in assay [13] turned out to be 54 Miller units; in [14] it was 1.4 Miller units; in assay [15] it was 3 Miller units; in [16], 62 Miller units; in [17], 1.3 Miller units; in [18], 2.2 Miller units.

For “Msh4 G639A (from UniProt P40965 1-878) (natural protein)”, the β-galactosidase activity (two-hybrid) in assay [13] stood at 11.6 Miller units.

As to “Msh4 D139A (from UniProt P40965 1-878) (natural protein)”, in [13], the β-galactosidase activity (two-hybrid) was 1.5 Miller units.

In [13], “Msh4 R456A (from UniProt P40965 1-878) (natural protein)” showed a β-galactosidase activity (two-hybrid) of 1.9 Miller units.

In turn, “Msh4 F491A (from UniProt P40965 1-878) (natural protein)” showed a β-galactosidase activity (two-hybrid) in assay [13] of 2.5 Miller units.

In assay [13], “Msh4 R676W (from UniProt P40965 1-878) (natural protein)” gave a β-galactosidase activity (two-hybrid) of 96 Miller units.

“Msh4 L493A (from UniProt P40965 1-878) (natural protein)”: the β-galactosidase activity (two-hybrid) in assay [13] is 1.6 Miller units.

On to “Msh4 E276A (from UniProt P40965 1-878) (natural protein)”, for which the β-galactosidase activity (two-hybrid) in assay [13] turned out to be 70 Miller units.
